Source: US20180296691A1 (Pfizer, published 2018)

What was measured:
Assay in all cases: SPR (BIAcore 2000), Eph receptor captured via anti-human antibody capture kit, monomeric human Ephrin-A4 12-400 nM as analyte, steady state affinity fit
[1] = target: T1, recombinant EphA3 receptor (commercially available) (UniProt P29320 21-541, limits assumed)
T1 sequence (looked up): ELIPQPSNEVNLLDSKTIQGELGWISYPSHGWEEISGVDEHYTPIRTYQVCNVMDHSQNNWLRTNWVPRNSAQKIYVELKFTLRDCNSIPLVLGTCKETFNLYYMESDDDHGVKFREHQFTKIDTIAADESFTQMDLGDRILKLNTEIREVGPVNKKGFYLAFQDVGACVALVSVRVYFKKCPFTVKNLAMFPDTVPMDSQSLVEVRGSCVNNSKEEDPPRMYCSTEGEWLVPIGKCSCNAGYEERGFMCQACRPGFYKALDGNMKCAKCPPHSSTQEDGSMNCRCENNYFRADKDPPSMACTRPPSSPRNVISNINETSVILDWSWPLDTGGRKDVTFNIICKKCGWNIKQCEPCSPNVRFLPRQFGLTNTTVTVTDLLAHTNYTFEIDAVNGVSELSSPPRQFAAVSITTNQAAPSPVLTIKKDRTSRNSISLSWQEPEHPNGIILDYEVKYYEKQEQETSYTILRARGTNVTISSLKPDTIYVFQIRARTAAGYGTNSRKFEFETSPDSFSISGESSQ
Protocol: (§1) An anti-human antibody capture kit was used to immobilize recombinant Eph receptors on a CM5 biosensor chip. Prior to each antigen injection cycle, Eph receptors at the concentration of 2 μg/mL were captured on the surface with a contact time of 2 minutes and a flow rate of 5 μL/min. The captured antibody loading from baseline was constant at 150-260 response units. […] Following each cycle, the anti-human capture surface was regenerated with 30 seconds contact time of 3M MgCl₂ at 10 μL/min.
(§2) Biacore data was processed by initially calculating an average of the response at equilibrium (Req). The Req was then plotted versus concentration (M) and the steady state affinity fit was used to calculate the affinity and theoretical Rmax. In all cases, at least 5 different analyte concentrations were used to make this calculation. All data analysis steps were completed in BiaEvaluation Software 3.1 (GE Healthcare).

[2] = target: T2, recombinant EphA6 receptor (commercially available) (UniProt Q9UF33 23-550, limits assumed)
T2 sequence (looked up): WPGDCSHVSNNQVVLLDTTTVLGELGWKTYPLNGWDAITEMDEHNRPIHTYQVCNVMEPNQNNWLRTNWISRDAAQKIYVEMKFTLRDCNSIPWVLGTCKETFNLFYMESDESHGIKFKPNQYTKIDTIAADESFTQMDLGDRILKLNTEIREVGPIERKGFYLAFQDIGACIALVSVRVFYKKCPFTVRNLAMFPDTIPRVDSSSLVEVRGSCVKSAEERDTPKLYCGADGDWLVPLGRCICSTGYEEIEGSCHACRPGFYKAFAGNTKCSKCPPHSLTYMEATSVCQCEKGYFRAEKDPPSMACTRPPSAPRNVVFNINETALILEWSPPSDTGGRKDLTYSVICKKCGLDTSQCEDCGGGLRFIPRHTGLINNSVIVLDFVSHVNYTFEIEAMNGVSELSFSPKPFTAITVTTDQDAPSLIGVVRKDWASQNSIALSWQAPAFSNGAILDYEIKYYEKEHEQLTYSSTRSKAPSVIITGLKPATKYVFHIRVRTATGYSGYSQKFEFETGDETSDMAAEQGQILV
Protocol: as §1, §2

[3] = target: T3, recombinant EphB2 receptor (commercially available) (UniProt P29323 19-543, limits assumed)
T3 sequence (looked up): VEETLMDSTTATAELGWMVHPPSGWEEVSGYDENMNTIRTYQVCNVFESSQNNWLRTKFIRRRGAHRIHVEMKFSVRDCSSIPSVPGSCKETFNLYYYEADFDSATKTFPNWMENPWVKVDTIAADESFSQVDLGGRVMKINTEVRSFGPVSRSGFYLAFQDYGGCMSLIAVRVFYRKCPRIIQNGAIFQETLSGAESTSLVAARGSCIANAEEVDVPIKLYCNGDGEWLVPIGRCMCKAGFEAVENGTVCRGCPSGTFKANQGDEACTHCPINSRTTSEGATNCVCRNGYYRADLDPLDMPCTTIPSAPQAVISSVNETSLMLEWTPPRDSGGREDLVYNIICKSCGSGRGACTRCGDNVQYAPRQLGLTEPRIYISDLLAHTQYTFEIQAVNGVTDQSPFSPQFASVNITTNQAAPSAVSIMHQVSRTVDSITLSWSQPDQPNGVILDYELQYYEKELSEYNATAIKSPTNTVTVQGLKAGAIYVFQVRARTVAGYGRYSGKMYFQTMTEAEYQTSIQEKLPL
Protocol: as §1, §2

[4] = target: recombinant EphA2 receptor (commercially available) (UniProt P29317 25-534, limits assumed)
Chain of recombinant EphA2 receptor (commercially available) (P29317 25-534 limits assumed): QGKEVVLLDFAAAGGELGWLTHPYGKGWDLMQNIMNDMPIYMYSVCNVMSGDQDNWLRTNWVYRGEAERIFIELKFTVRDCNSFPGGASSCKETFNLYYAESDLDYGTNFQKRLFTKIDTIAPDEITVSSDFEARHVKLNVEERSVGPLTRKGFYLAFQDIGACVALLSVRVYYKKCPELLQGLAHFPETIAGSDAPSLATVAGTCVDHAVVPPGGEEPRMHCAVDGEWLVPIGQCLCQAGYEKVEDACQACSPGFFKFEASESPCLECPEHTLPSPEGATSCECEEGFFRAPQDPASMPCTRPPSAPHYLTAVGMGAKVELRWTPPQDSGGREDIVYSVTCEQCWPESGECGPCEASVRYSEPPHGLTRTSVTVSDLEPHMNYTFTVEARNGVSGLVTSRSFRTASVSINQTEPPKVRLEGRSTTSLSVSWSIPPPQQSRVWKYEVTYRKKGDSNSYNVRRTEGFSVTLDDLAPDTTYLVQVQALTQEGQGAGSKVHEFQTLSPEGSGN
Protocol: as §1, §2

[5] = target: T4, recombinant EphA10 receptor (commercially available) (UniProt Q5JZY3 34-565, limits assumed)
T4 sequence (looked up): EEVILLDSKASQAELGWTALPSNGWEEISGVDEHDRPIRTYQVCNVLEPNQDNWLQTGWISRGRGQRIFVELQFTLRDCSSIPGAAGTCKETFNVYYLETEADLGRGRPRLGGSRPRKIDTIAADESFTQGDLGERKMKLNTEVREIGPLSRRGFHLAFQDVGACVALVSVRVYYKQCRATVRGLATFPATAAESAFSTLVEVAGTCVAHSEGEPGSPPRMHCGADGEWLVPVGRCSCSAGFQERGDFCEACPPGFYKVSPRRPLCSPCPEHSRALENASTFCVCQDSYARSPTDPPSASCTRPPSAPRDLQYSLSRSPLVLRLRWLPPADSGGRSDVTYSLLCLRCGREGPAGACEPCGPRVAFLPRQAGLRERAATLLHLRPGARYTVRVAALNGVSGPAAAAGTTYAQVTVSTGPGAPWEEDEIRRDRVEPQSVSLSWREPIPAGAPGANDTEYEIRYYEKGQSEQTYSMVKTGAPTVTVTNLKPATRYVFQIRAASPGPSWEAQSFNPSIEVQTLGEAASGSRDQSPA
Protocol: as §1, §2

[6] = target: T5, recombinant EphA7 receptor (commercially available) (UniProt Q15375 28-555, limits assumed)
T5 sequence (looked up): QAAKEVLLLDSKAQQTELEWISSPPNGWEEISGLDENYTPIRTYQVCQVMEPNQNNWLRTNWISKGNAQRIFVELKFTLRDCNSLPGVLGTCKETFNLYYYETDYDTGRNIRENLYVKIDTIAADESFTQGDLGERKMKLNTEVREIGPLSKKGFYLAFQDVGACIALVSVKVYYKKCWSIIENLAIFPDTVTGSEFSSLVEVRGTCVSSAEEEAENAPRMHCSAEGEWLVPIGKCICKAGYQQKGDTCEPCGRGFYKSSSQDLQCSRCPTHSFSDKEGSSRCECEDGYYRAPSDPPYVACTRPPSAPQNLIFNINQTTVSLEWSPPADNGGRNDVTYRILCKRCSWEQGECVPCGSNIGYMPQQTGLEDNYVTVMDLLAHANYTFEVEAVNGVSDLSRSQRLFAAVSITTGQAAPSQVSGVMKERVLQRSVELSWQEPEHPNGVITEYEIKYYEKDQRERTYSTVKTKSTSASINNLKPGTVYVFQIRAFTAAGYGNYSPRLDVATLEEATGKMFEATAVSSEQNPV
Protocol: as §1, §2

[7] = target: recombinant EphA4 receptor (commercially available) (UniProt P54764 20-547, limits assumed)
Chain of recombinant EphA4 receptor (commercially available) (P54764 20-547 limits assumed): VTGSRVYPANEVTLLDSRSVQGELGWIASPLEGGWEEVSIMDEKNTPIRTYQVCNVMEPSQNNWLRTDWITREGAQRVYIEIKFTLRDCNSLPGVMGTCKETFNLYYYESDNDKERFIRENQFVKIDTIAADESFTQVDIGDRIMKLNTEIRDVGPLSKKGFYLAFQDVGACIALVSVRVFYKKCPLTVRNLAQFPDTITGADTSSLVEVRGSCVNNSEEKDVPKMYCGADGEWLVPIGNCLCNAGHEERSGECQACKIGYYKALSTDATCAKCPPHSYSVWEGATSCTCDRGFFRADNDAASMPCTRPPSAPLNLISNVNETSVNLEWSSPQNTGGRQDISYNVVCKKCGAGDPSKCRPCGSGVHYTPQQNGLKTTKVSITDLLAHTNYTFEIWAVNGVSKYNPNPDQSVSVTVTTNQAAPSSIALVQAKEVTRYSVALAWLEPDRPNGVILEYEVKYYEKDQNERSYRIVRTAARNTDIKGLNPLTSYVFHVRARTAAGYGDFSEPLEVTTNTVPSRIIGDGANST
Protocol: as §1, §2

Kd [1]: 77 nM
Kd [2]: 82 nM
Kd [3]: 135 nM
Kd [4]: 31 nM
Kd [5]: 431 nM
Kd [6]: 86 nM
Kd [7]: 122 nM
B1: monomeric human Ephrin-A4 (ligand)
chain: LRHVVYWNSSNPRLLRGDAVVELGLNDYLDIVCPHYEGPGPPEGPETFALYMVDWPGYESCQAEGPRAYKRWVCSLPFGHVQFSEKIQRFTPFSLGFEFLPGETYYYISVPTPESSGQCLRLQVSVCCKERKSESAHPVGSPGES
